Experimental data from US20200190192A1 (SUTRO BIOPHARMA, published 2020).
Changes are numbered by the printed parent chain. Where two headings read alike, the source gives them in different places. Each block holds one binder with its values, some of them ahead of it.

Assays:
[1] = target: T1, recombinant human Tim-3-Fc (R&D Systems, 2365-TM) (human, UniProt Q8TDQ0 22-202, biotinylated in the Galectin-9 competition ELISA (sites not given)); test: competition ELISA, biotin-Tim-3-Fc vs coated Galectin-9
T1 construct: Bought protein; also called huTim-3-Fc; biotinylated Tim-3-Fc; not shown: Fc of the bought fusion protein

[2] = target: T2, human Tim-3 expressed on the cell surface (human, UniProt Q8TDQ0 22-301); test: flow cytometry, CHO-human Tim-3 cells
T2 construct: also called hTim-3; Human Tim-3 (CHO)

[3] = target: T3, cynomolgus Tim-3 expressed on CHO cells (cynomolgus monkey); test: flow cytometry, CHO-cyno Tim-3 cells
T3 construct: also called cTim-3; Cyno Tim-3 (CHO)
T3 chain: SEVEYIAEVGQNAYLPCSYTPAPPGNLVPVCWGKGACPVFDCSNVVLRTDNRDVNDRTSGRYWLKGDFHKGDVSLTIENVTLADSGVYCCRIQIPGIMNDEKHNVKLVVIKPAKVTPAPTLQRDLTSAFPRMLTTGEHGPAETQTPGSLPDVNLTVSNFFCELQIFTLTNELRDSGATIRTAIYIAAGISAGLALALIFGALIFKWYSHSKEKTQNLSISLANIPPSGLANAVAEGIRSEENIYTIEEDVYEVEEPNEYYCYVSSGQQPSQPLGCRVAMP

[4] = target: T4, human Tim-3 (Biacore analyte; TIM-3-Fc or TIM-3-HIS, not said which) (human, UniProt Q8TDQ0 22-202); test: SPR Biacore, human Tim-3 (Fc or HIS not said)
T4 construct: also called TIM-3 antigen; not shown: Fc or HIS tag

[5] = target: T1, recombinant human Tim-3-Fc (R&D …); test: AlphaLISA bridging: Tim-3-Fc acceptor beads + PD-1 donor beads (signal needs both)
[6] = target: T5, biotinylated recombinant human PD-1 (AcroBiosystems) (human, UniProt Q15116 25-167, limits assumed, biotinylated (sites not given)); test: competition, flow cytometry: biotin-PD-1 binding to CHO-human PD-L1 cells
T5 construct: Bought protein; also called biotinylated PD-1

[7] = target: T3, cynomolgus Tim-3 expressed on CHO cells; test: flow cytometry, CHO-cyno Tim-3 cells
[8] = target: T2, human Tim-3 expressed on the cell …; test: flow cytometry, CHO-human Tim-3 cells; remark: listed apart in the source
[9] = target: T6, human PD-1 expressed on CHO cells (human, UniProt Q15116 25-288); test: flow cytometry, CHO-human PD-1 cells
T6 construct: also called hPD-1; CHO-hPD-1

[10] = target: T4, human Tim-3 (Biacore analyte; TIM-3-Fc …); test: kinetics; method and analyte not given
[11] = target: T2, human Tim-3 expressed on the cell …; test: cell binding, CHO-human Tim-3 cells
[12] = target: T3, cynomolgus Tim-3 expressed on CHO cells; test: cell binding, CHO-cyno Tim-3 cells

B2: 1353-G10-scFv × 1649-A01-Fab (bispecific antibody, V domains shown)
VH 1: EVQLVQSGAEVKKPGASVKVSCKASGYRFPHYGISWVRQAPGQGLEWMGWISAYNGNTNYAQKLQGRVTMTTDTSTNTAYMELRSLRSDDTAVYYCARDVDYGTGSGYWGQGTLVTVSS
VL 1: SYELTQPPSVSVSPGQTARITCSGDALPKQYAYWYQQKPGQAPVMVIYKDTERPSGIPERFSGSSSGTKVTLTISGVQAEDEADYYCQSADNSITYRVFGGGTKVTVL
VH 2: EVQLVESGGGLVQPGGSLRLSCAASGFNISRYYIHWVRQAPGKGLEWVAGITPVRGYTEYADSVKDRFTISADTSKNTAYLQMNSLRAEDTAVYYCARGYVYRMWDSYDYWGQGTLVTVSS
VL 2: not shown
notes: scFv-Fc × Fab bi-specific; also called Sample C; protein sample C
EC50 [5]: 0.05 nM
IC50 [6]: 11 nM
Kd [7]: 29 nM
Kd [8]: 4.4 nM
Kd [9]: 1.3 nM

B5: Mouse hybridoma clone 2D5 (antibody, V domains shown)
VH: EVQLQQSGPELVKPGTSMKISCRASGYPFIGYTMNWVKQSHGGNLEWIGLINPYNGITTYNQKFKGRATLSVDTSSTIAYMELLSLTSDDSAEYYCARSFFYGSSNDWLVYWGQGTLVTVSA
VL: DVLMTQTPLSLPVSLGDQASISCRSSQSIVHTNGNTYLEWYLQKPGQSPKLLIYKVSNRFSGVPDRFSGSGSGTDFTLKISRVEAEDLGVYYCFQGSHVPWTFGGGTELEIK
notes: Mouse antibody; also called 421.51.2.2D5.5E9
Kd [10]: 0.431 nM
koff [10]: 0.000166 s⁻¹
kon [10]: 386000 M⁻¹ s⁻¹
binding result [11]: binds
binding result [12]: no binding

Now from value to binder:

IC50 [1]: 0.26 nM
Kd [2]: 0.4 nM
Kd [3]: 0.5 nM
Kd [4]: 17.4 nM
koff [4]: 0.00117 s⁻¹
kon [4]: 67100 M⁻¹ s⁻¹
B1: SRP1649-A01 (antibody, V domains shown)
VH: B2 VH 2
VL: not shown
notes: IgG with trastuzumab LC; HIS- and FLAG-tagged

IC50 [1]: 0.63 nM
Kd [2]: 0.2 nM
Kd [3]: 5.6 nM
Kd [4]: 17.3 nM
koff [4]: 0.00393 s⁻¹
kon [4]: 227000 M⁻¹ s⁻¹
B3: SRP1649-F06 (antibody, V domains shown)
VH: B2 VH 2 with S30G, R31N, Y33A, G50D, V54G, R55Q
VL: not shown
notes: as for B1

Kd [10]: 1.5 nM
koff [10]: 0.000334 s⁻¹
kon [10]: 223000 M⁻¹ s⁻¹
binding result [11]: binds
binding result [12]: binds
B4: Mouse hybridoma clone 22E11 (antibody, V domains shown)
VH: QVQLKESGPDLVAPSQSLSITCTVSGFSLTSYGVHWVRQPPGKGLEWLVVIWSDGSTTYNSALKSRLTISKDNSKSQVFLKMNSLQTDDTAMYYCARQGGYRYDDAMDYWGQGTSVAVSS
VL: DIVLTQSPASLAVSLGQRATISCKASQSVDYDGNSYVNWYQQKPGQPPKLLIYAASNLESGIPARFSGSGSGTDFTLNIHPVEEEDAATYYCQQSNEDPYTFGGGTKLEIK
notes: Mouse antibody; also called m22E11; 250.180.2.22E11
